Measurements reported in patent publication US20260028402A1.

Biological target: HuCD100-His (human) (UniProt Q92854)
Test: cell-based or functional assay

B1: Pepinemab (antibody, INN chains, looked up, V domains shown)
VH: QVQLVQSGAEVKKPGSSVKVSCKASGYSFSDYYMHWVRQAPGQGLEWMGQINPTTGGASYNQKFKGKATITVDKSTSTAYMELSSLRSEDTAVYYCARYYYGRHFDVWGQGTTVTVSS
VL: DIVMTQSPDSLAVSLGERATINCKASQSVDYDGDSYMNWYQQKPGQPPKLLIYAASNLESGVPDRFSGSGSGTDFTLTISSLQAEDVAVYYCQQSNEDPYTFGQGTKLEIK
modifications: IgG4
B1 gave an MDSC proportion (%) at 2.821 nM antibody of 27.1%, an MDSC proportion (%) at 8.463 nM antibody of 16.3% and an MDSC proportion (%) at 25.389 nM antibody of 8.29%. For the same binder, the MDSC proportion (%) at 76.166 nM antibody was 6.92%, the MDSC proportion (%) at 228.498 nM antibody was 6.97% and the MDSC proportion (%) at 685.495 nM antibody was 10.3%.
